Measured values from the supplement of paper PMC12042874.
± gives the uncertainty stated by the source.

assay: amyloid nucleation score (Sup35N fusion, yeast selection) (log enrichment); library NNK3; higher = more nucleation; inactive = no reads after selection
Summary of the method: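 On medium lacking adenine and uracil, psi-negative yeast expressing peptides of 20 random codons fused to Sup35N were grown 7 days at 30°C after a 24-hour induction with 100 μM copper sulfate. Illumina sequencing of input and output plasmid inserts gave the reads, and sequences under 100 input reads were excluded. The nucleation score is the DiMSum log enrichment of output over input reads, centred on the mode score of non-aggregating sequences.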

Amyloid nucleation score, -0.113 ± 0.66:
DVEFGLSKLCYHRVCYVTEM

Amyloid nucleation score, -0.613 ± 1.5:
EMRSFVGNSCI

Amyloid nucleation score, -0.54 ± 0.68:
ETISFYLCLLYDVKLVNALM

Amyloid nucleation score, 1.87 ± 0.076:
ETFVGLEVNWNSCNCFIVQE

Amyloid nucleation score, 1.61 ± 0.069:
ESVNGTSFPVFIYHRTSFRL

Amyloid nucleation score, 0.156 ± 0.32:
FCRRSGSFVLDMTYWGMYRP

Amyloid nucleation score, 1.96 ± 0.071:
FAAARSYFKLFHIYCDDVTG

Amyloid nucleation score, 0.635 ± 0.19:
EHVKRVRIWNSVNLVIEYMA

Amyloid nucleation score, -0.618 ± 0.98:
EILISNCEVDRRLYRGGN

Amyloid nucleation score, 2.18 ± 0.053:
EIICLSLLCS

Amyloid nucleation score, 0.601 ± 0.32:
EYGLNFSLNGYLSH

Amyloid nucleation score, 1.09 ± 0.11:
DSTSLKIGRNAMSHHKSNPC

Amyloid nucleation score, 0.224 ± 0.44:
FALSWSSNGAALLRLELTTL

Amyloid nucleation score, -0.89 ± 1.3:
DSLAVFNNVRRSMTVSRSAA

Amyloid nucleation score, 0.636 ± 0.14:
FCEDSRMSYKFYVSCIFAHS

Amyloid nucleation score, 0.14 ± 0.38:
DVNIRSSGDNTIAFKYYTMK

Amyloid nucleation score, -1.32 ± 2.5:
DSFVLSTTFLSSGTSAACLG

Amyloid nucleation score, 1.08 ± 0.15:
FCYEHSLWLCLSYKVTVMRM

Amyloid nucleation score, -0.165 ± 0.33:
DSGKC

Amyloid nucleation score, inactive:
DMVLSEPFFFGLCFLDFWIF
DMYVLLMRTQSLGMPLIGIS
DNATARLQTRNEWSMR
DNCCKLARVLAWFVFNRLNR
DNFRVDLVNRLLFYRISHAA
DNLWRVRLRCKAFSLYVLNR
DNMSKTSFKLTNCRQCIM
DNSGVSVQLRKVSESGSA
DNVNYPPVSYQTAG
DPWDPYFNLRVSYPFKYYLS
DPYAGLDNLTRIWASKPSKY
DQCVLRLPFVIRGSHVSGRK
DQDKLFSEIRAMKFCCSFPP
DQHFCKSEREGTRYWLRLTI
DRDGQPAWHLS
DRHSRCQ
DRIAHF
DRLRYNLWS
DRMKATVQLDFG
DRSDSMYPINMREESREFTF
DRSLMRS
DRVPSDTRCYKYGLLLLWYQ
DSCKIYGG
DSDDNVRKNFAS
DSFLSGSEELSVSDCCCIAF
DSFRDRGCQQKIEIF
DSGCLAMF
DSMVCSHCWLFDEGSYVYGQ
DSSDVVSVLVLSEMCAALVT
DTISGGEWDNEVRPYRILLL
DTYGVVCEVYAILWMNRPLR
DVFDYVSTVVTNYW
DVFSDSQVVENRV
DVLTVMSQLVVMKTL
DVMRGIKYVRRVNAQLTGSS
DVMRVWFTEYSMSTTVGMAV
DVMTKDQ
DVSLVGSVMRIELLEMCVSR
DVSRVIA
DWCVSSEMSVTNALQATKFA
DWEDCVV
DWGTASSSTVGFEQSSDKVF
DWIKFHVTDW
DWNRLFRVD
DWNYNTLQLSSPVGAGLTKN
DYALC
DYALI
DYATESFTVITLLGILLDRG
DYHLQLKMLRPW
DYSIAVGYWSFHVN
DYVNRCI
EAARTDLSILFISWMLLGKR
EATPSSIQAQ
ECADLWARLYHFF
ECCGDLGAVWQVVRNCGKVL
ECCQSSSVITNFSSFVKGGA
ECWKVGKGLRSE
EDAFWYYVEWPYKWLQGGHS
EDSMRYCH
EEDKLFCGVMWQFG
EEFSGNLCDFRLQPRSCCEN
EEPNG
EFCIRRIM
EFFHNYVINMERYNCVLVRM
EFGDFVDKASMLNIWDGIVG
EFMKGFAWISMFNLRSVLNS
EFMSSVGIYMEIDCTLGVCD
EFVEAYFSNGLSRLPLTHGM
EGETTEVLTLVVWRKVINNS
EGHLIHEYTQTRFVLEVSVK
EGNYAYAVVSHAHFEV
EGRRIAGNARDRDHDLQVGR
EGRRPKYIGNESRYNMYHPY
EHIEIRSSFEVSPHTPNPAS
EHNYSTASITSTLSTPNRAI
EIFGSISG
EIIFSSLSIPLYMLEGI
EISLPLFFATLGYFFWIAMR
EITLYEQGNNRSLVGPERKS
EKLCAHCSCPKVGVELFGCV
EKRPNPVSICLRWIKEKAT
ELDMLRYEVMVCNHDDGLCE
ELFKEVCEGEFRAS
ELLFIDGWKST
ELLLMCIDDVSMRFITPLEY
ELRLMGFRGALDACLSLHPI
ELSTMIKSSCPPLIDRWLFP
EMRKAIRRL
EMVITWCLRMLSQAMLGGYS
EMYGWINMIQWNLLCVSEII
EPKLDNV
EQLFD
EQTLGYNLIRAWLSKCCWMT
ERELGQRLSCTGNSTVWSYE
ERFSFVLVNGVRYFRSNLRW
ERLFRFENEDLVIFIYCSIL
ERLGVL
ERMRLNARFSTHLE
ERRASLGYNHIL
ESCGRSQHPKEAKELESGAG
ESDGCNNQFRHWSHCRSKNP
ESDITICS
ESWKWYQYSVQWAWYEHPHS
ESWNRKVLRHVSVEWHWLV
ETDVHSYFVSLYSYPFAVEP
EVCQCRPTTVSLARVGRIVV
EVEIRWPCLKVVFLFLVH
EVLYYRFLF
EVPGHSGQYSGVDYGYVWLA
EVRRRDLYLWKASETLLRLL
EVWRVSDSYSVDEIFVLLNL
EYSLTLPYFVGSALPPQNTC
FADYFASSIFWYRCASHLGW
FAHVI
FASIVFRCVLFTLFHPAVFR
FASYYHTVDRADFDDLDPAN
FAVQCWKAGVAKNYGMHFVC
FCCINKLDGLGVWETYCSYS
FCFDEEDVLRTGCNGDSYPG
FCIECYL
FCKLQYTGQS
FCSLIKYSQNYYNPLAHTVL
FCSRYWLYLCRALLNRVVMR
FCTGWSNGLVNHVDYKKGRN
FCYSDFIPLWIR
FDDLSARVPLTVTLWPSHTA
FDEDRREV
FDGNFGWARRVNAGDSLFMF
FDGTVVSR
FDGVGYATSIMEGNDSG
FDNFFYWSRKRD

Amyloid nucleation score, 0.536 ± 0.33:
ESFLFFMFIFASCTT

Amyloid nucleation score, 1.32 ± 0.12:
DTGFCYKFNYIPVDVIICIC

Amyloid nucleation score, 0.582 ± 0.17:
DRHCLSL

Amyloid nucleation score, 2.05 ± 0.097:
DSFGLFCYTYLWCLWQANDK

Amyloid nucleation score, -0.264 ± 1:
EVYLETCRGILFCALDTIFG

Amyloid nucleation score, 0.788 ± 0.12:
EKMDLPRAYGDIRTPKEVVR

Amyloid nucleation score, 0.681 ± 0.34:
DSSRTVGCLSCFYFAIGFWI

Amyloid nucleation score, 1.75 ± 0.11:
FCGPFSYGRLTYGFWFRKRP

Amyloid nucleation score, -0.42 ± 0.9:
ESSNNPFFDQAYIYIKFY
